The values that follow come from the supplement of paper PMC7877785.

± gives the uncertainty stated by the source.

The nature of the data set: self-splicing fitness, log relative to wild type (ln ratio); higher = more splicing; Tetrahymena group I intron in knt gene, E. coli kanamycin selection, DiMSum; sequences stand for … in CUCUCU…GGAGGGAAAAGUUAUCAGGCAUGCACCUGGUAGCUAGUCUUUAAACCAAUAGAUUGCAUCGGUUUAAAAGGCAAGACCGUCAAAUUGCGGGAAAGGGGUCAACAGCCGUUCAGUACCAAGUCUCAGGGGAAACUUUGAGAUGGCCUUGCAAAGGGUAUGGUAAUAAGCUGACGGACAUGGUCCUAACCACGCAGCCAAGUCCUAAGUCAACAGAUCUUCUGUUGAUAUGGAUGCAGUUCACAGACUAAAUGUCGGUCGGGGAAGAUGUAUUCUUCUCAUAAGAUAUAGUCGGACCUCUCCUUAAUGGGAGCUAGCGGAUGAAGUGAUGCAACACUGGAGCCGCUGGGAACUAAUUUGUAUGCGAAAGUAUAUUGAUUAGUUUUGGAGUACUCGUGGUCG
Summed up:
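A randomised library covering all eight P1ex-region intron nucleotides was built with the intron in the knt kanamycin-resistance gene on pET-22b(+) and held in E. coli BL21(DE3). Cells were grown overnight at 37°C or 30°C on LB agar, with or without 25 μg/mL kanamycin, plus 100 μg/mL carbenicillin, 50 μM IPTG and 0.2% rhamnose, and pooled colonies were amplicon-sequenced on an Illumina HiSeq 2500. DiMSum fitness is the error-weighted combination of wild-type-normalised replicate fold changes, kanamycin versus none.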

Consider UAGUAGCAAUAUUACGCCAG, for which the “self-splicing fitness (ln)” value reads like this: (30 °C) -2.8 ± 0.15; (37 °C) -1.94 ± 0.15. In the same order, the values of ACCAAGCAAUAUUACGCUCU are -0.714 ± 0.06 and -0.02 ± 0.073. For AGACAGCAAUAUUACGUGCG, the “self-splicing fitness (ln)” value is -0.833 ± 0.077 (30 °C) and -0.653 ± 0.083 (37 °C). As to UUCGAGCAAUAUUACGAUAG, the “self-splicing fitness (ln)” value is -2.73 ± 0.44 (30 °C) and -1.77 ± 0.25 (37 °C).

Consider CUGUAGCAAUAUUACGACUU, for which the “self-splicing fitness (ln)” value (30 °C) was -2.12 ± 0.21 and the “self-splicing fitness (ln)” value (37 °C) is -1.36 ± 0.33. Regarding AAGUAGCAAUAUUACGCAUC, the “self-splicing fitness (ln)” value runs as follows: (30 °C) -3.84 ± 0.47; (37 °C) -1.08 ± 0.23. In the same order, the values of GCGGAGCAAUAUUACGUGUU are -2.9 ± 0.31 and -1.47 ± 0.18. With CGAGAGCAAUAUUACGUUUA, the “self-splicing fitness (ln)” value is, setting by setting: (30 °C) -3.35 ± 0.36; (37 °C) -3.25 ± 0.47.

For GACCAGCAAUAUUACGACGA, the “self-splicing fitness (ln)” value is -0.236 ± 0.091 (30 °C) and 0.15 ± 0.1 (37 °C). The corresponding values for CGUCAGCAAUAUUACGCCUG are -0.469 ± 0.099 and 0.582 ± 0.12. In the same order, the values of GGUAAGCAAUAUUACGUUAU are -2.4 ± 0.17 and -2.3 ± 0.24. The corresponding values for GAGUAGCAAUAUUACGGCGA are -0.645 ± 0.16 and -0.441 ± 0.2.

For GUCUAGCAAUAUUACGAUGC, the “self-splicing fitness (ln)” value is 0.169 ± 0.14 (30 °C) and -0.841 ± 0.13 (37 °C). As to GGGGAGCAAUAUUACGUCCG, the “self-splicing fitness (ln)” value is, setting by setting: (30 °C) -0.963 ± 0.13; (37 °C) -0.326 ± 0.2. Turning to GCGCAGCAAUAUUACGACUA, the “self-splicing fitness (ln)” value reads like this: (30 °C) -0.643 ± 0.12; (37 °C) 0.154 ± 0.11.

With GCUAAGCAAUAUUACGAAAG, the “self-splicing fitness (ln)” value reads like this: (30 °C) -0.97 ± 0.14; (37 °C) -1.09 ± 0.21. For the sequence CUGAAGCAAUAUUACGAUCG, the “self-splicing fitness (ln)” value was 0.00255 ± 0.12 (30 °C) and -0.0487 ± 0.13 (37 °C). For the sequence GGUGAGCAAUAUUACGUUUU, the “self-splicing fitness (ln)” value is -2.94 ± 0.26 (30 °C) and -1.6 ± 0.23 (37 °C). In the same order, the values of UUUCAGCAAUAUUACGCCUU are -1.58 ± 0.2 and -0.883 ± 0.2. With CGCUAGCAAUAUUACGCGUC, the “self-splicing fitness (ln)” value runs as follows: (30 °C) -3.34 ± 0.32; (37 °C) -3.09 ± 0.39. UAGUAGCAAUAUUACGGAGG: the “self-splicing fitness (ln)” value (37 °C) was -1.43 ± 0.44. GGCAAGCAAUAUUACGUGCU: the “self-splicing fitness (ln)” value by setting is: (30 °C) -3.91 ± 0.16; (37 °C) -2.99 ± 0.2.

Regarding UAUCAGCAAUAUUACGAGCU, the “self-splicing fitness (ln)” value by setting is: (30 °C) -2.71 ± 0.28; (37 °C) -1.35 ± 0.21. On to AGGGAGCAAUAUUACGUUUC, for which, under “37 °C”, the “self-splicing fitness (ln)” value is -2.44 ± 0.24. Turning to ACUAAGCAAUAUUACGCGGU, the “self-splicing fitness (ln)” value is, setting by setting: (30 °C) -2.65 ± 0.14; (37 °C) -2.59 ± 0.21. As for GAACAGCAAUAUUACGUGGA, the “self-splicing fitness (ln)” value (30 °C) is -2.32 ± 0.1 and the “self-splicing fitness (ln)” value (37 °C) is -1.95 ± 0.094. The corresponding values for AUGCAGCAAUAUUACGAUUG are -2.67 ± 0.2 and -2.83 ± 0.32. As to UACCAGCAAUAUUACGGGCG, the “self-splicing fitness (ln)” value is, setting by setting: (30 °C) -0.359 ± 0.072; (37 °C) -0.277 ± 0.079.

Turning to AGUUAGCAAUAUUACGAAUU, the “self-splicing fitness (ln)” value is, setting by setting: (30 °C) -1.62 ± 0.11; (37 °C) -0.649 ± 0.12. In the same order, the values of UAAAAGCAAUAUUACGGAGA are -2.31 ± 0.27 and -1.83 ± 0.27.

As to UCGGAGCAAUAUUACGAGUU, the “self-splicing fitness (ln)” value (30 °C) was -2.79 ± 0.33. On to UUAAAGCAAUAUUACGCGAC, for which the “self-splicing fitness (ln)” value reads like this: (30 °C) -2.19 ± 0.15; (37 °C) -1.72 ± 0.17. As to CAAUAGCAAUAUUACGUUAG, the “self-splicing fitness (ln)” value (30 °C) is -1.44 ± 0.057 and the “self-splicing fitness (ln)” value (37 °C) is -0.481 ± 0.074. On to UAUGAGCAAUAUUACGAUUC, for which the “self-splicing fitness (ln)” value (37 °C) is -1.6 ± 0.45. As to GUUUAGCAAUAUUACGACUA, the “self-splicing fitness (ln)” value was -0.518 ± 0.18 (30 °C) and 0.0789 ± 0.15 (37 °C). The corresponding values for GCGGAGCAAUAUUACGACGG are -2.27 ± 0.19 and -1.13 ± 0.2. On to ACCGAGCAAUAUUACGCCGU, for which the “self-splicing fitness (ln)” value (30 °C) is -3.49 ± 0.3 and the “self-splicing fitness (ln)” value (37 °C) was -1.75 ± 0.2.

In the case of CCUAAGCAAUAUUACGACCA, the “self-splicing fitness (ln)” value is, setting by setting: (30 °C) -3.19 ± 0.21; (37 °C) -1.46 ± 0.17. In the same order, the values of AGUCAGCAAUAUUACGAGGU are -3.4 ± 0.26 and -2.62 ± 0.24. For GUGCAGCAAUAUUACGGCGA, the “self-splicing fitness (ln)” value reads like this: (30 °C) -0.548 ± 0.064; (37 °C) 0.119 ± 0.092.

Turning to GAAGAGCAAUAUUACGGUAU, the “self-splicing fitness (ln)” value runs as follows: (30 °C) -3.7 ± 0.23; (37 °C) -2.46 ± 0.31.

As to UCCUAGCAAUAUUACGAACG, the “self-splicing fitness (ln)” value runs as follows: (30 °C) -1.85 ± 0.2; (37 °C) -1.78 ± 0.3. In the same order, the values of UUAUAGCAAUAUUACGGUAA are -1.31 ± 0.17 and -0.924 ± 0.17. For the sequence CGUUAGCAAUAUUACGGCCU, the “self-splicing fitness (ln)” value is -1.53 ± 0.15 (30 °C) and -1.26 ± 0.23 (37 °C). In the same order, the values of AGCGAGCAAUAUUACGUGAU are -2.98 ± 0.21 and -3.09 ± 0.35. The corresponding values for CUCUAGCAAUAUUACGCGGG are -3.39 ± 0.18 and -1.41 ± 0.14. As for CCACAGCAAUAUUACGAGCC, the “self-splicing fitness (ln)” value by setting is: (30 °C) -3.22 ± 0.42; (37 °C) -2.3 ± 0.31. On to UCCGAGCAAUAUUACGAGUC, for which, where the note is “37 °C”, the “self-splicing fitness (ln)” value was -2.16 ± 0.22. On to CAGGAGCAAUAUUACGUAUA, for which the “self-splicing fitness (ln)” value runs as follows: (30 °C) -4.26 ± 0.34; (37 °C) -1.62 ± 0.21. As to UGGUAGCAAUAUUACGUAAU, the “self-splicing fitness (ln)” value (30 °C) was -1.61 ± 0.19 and the “self-splicing fitness (ln)” value (37 °C) was -0.903 ± 0.16. For the sequence GAAUAGCAAUAUUACGCAGU, the “self-splicing fitness (ln)” value reads like this: (30 °C) -2.57 ± 0.15; (37 °C) -0.857 ± 0.12. Turning to CUGCAGCAAUAUUACGCCUA, where the note is “37 °C”, the “self-splicing fitness (ln)” value was -0.55 ± 0.23. Consider GCCAAGCAAUAUUACGAGGC, for which the “self-splicing fitness (ln)” value runs as follows: (30 °C) -2.66 ± 0.16; (37 °C) -1.93 ± 0.21.

CACUAGCAAUAUUACGCACG: the “self-splicing fitness (ln)” value was -0.378 ± 0.099 (30 °C) and -0.823 ± 0.089 (37 °C). The corresponding values for AUUAAGCAAUAUUACGAGCU are -0.659 ± 0.14 and -0.821 ± 0.2.

Regarding UUCCAGCAAUAUUACGAAGU, the “self-splicing fitness (ln)” value (37 °C) was -1.47 ± 0.32.

Consider GCGGAGCAAUAUUACGCAAG, for which the “self-splicing fitness (ln)” value by setting is: (30 °C) -2.73 ± 0.38; (37 °C) -2.3 ± 0.31. The corresponding values for CAGUAGCAAUAUUACGACGC are -3.07 ± 0.38 and -0.25 ± 0.25. The corresponding values for CACCAGCAAUAUUACGAUUC are -2.18 ± 0.094 and -2.32 ± 0.18.

Consider GACCAGCAAUAUUACGUUUA, for which the “self-splicing fitness (ln)” value is -0.372 ± 0.051 (30 °C) and -0.0736 ± 0.062 (37 °C). Turning to GGAUAGCAAUAUUACGUAAU, the “self-splicing fitness (ln)” value (30 °C) is -1.99 ± 0.13 and the “self-splicing fitness (ln)” value (37 °C) was -0.617 ± 0.14. The corresponding values for GUCAAGCAAUAUUACGAUAC are -3.1 ± 0.14 and -1.16 ± 0.09.
